# Measured values as given in patent publication US20180243365A1.
# Target: TcdB2 toxin (recombinant, full length) (Clostridium difficile)
# Test: SPR, TcdB2 immobilized, PepB2 injected; multivalent interaction, no affinity or rate constant determined
substance,measurement,value
PepB2 (Peptide 5; amino acids 1769-1787 of TcdB2),molecules of PepB2 calculated to bind a single molecule of TcdB (molecules of PepB2 per molecule of TcdB),250
